The supplement of paper PMC9233669
Fewer inactive variants are shown than the library holds.

What was measured:
[1] = system: biotinyl-Trp-oxazolone; assay: self-aminoacylation, catalytic enhancement (BWO) (fold over background); higher = more active; k-Seq, kA / k0A0; sequences stand for … in GGGAAUGGAUCCACAUCUACGAAUUC…UUCACUGCAGACUUGACGAAGCUG
In short: (§1)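 Catalytic enhancement equals the median kA over the uncatalyzed rate, the latter read from the low-activity peak of a bimodal Gaussian fit. Values of kA came from fitting each sequence's fraction reacted to a pseudo-first-order model, with 1000 bootstraps. Reacted RNA was captured with streptavidin and quantified by triplicate qPCR and Illumina sequencing after 90 minutes at room temperature with 2–1250 μM biotinyl-aminoacyl-oxazolone and 0.43 μM mutagenized RNA pools bearing a 21-nt variable region.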

[2] = system: biotinyl-Val-oxazolone; assay: self-aminoacylation, catalytic enhancement (BVO) (fold over background); higher = more active; k-Seq, kA / k0A0; sequences stand for … in GGGAAUGGAUCCACAUCUACGAAUUC…UUCACUGCAGACUUGACGAAGCUG
In short: as §1

[3] = system: biotinyl-Ile-oxazolone; assay: self-aminoacylation, catalytic enhancement (BIO) (fold over background); higher = more active; k-Seq, kA / k0A0; sequences stand for … in GGGAAUGGAUCCACAUCUACGAAUUC…UUCACUGCAGACUUGACGAAGCUG
In short: as §1

[4] = system: biotinyl-Phe-oxazolone; assay: self-aminoacylation, catalytic enhancement (BFO) (fold over background); higher = more active; k-Seq, kA / k0A0; sequences stand for … in GGGAAUGGAUCCACAUCUACGAAUUC…UUCACUGCAGACUUGACGAAGCUG
In short: as §1

[5] = system: biotinyl-Met-oxazolone; assay: self-aminoacylation, catalytic enhancement (BMO) (fold over background); higher = more active; k-Seq, kA / k0A0; sequences stand for … in GGGAAUGGAUCCACAUCUACGAAUUC…UUCACUGCAGACUUGACGAAGCUG
In short: as §1

[6] = system: biotinyl-Leu-oxazolone; assay: self-aminoacylation, catalytic enhancement (BLO) (fold over background); higher = more active; k-Seq, kA / k0A0; sequences stand for … in GGGAAUGGAUCCACAUCUACGAAUUC…UUCACUGCAGACUUGACGAAGCUG
In short: as §1

Row | Sequence | self-aminoacylation [1] | self-aminoacylation [2] | self-aminoacylation [3] | self-aminoacylation [4] | self-aminoacylation [5] | self-aminoacylation [6]
1 | CUACUUCGAACAACCGGUCUG [Fam1A.1 aminoacylation ribozyme variant] | 0.949 | 1.21 | 0.822 | 0.394 | 0.734 | 0.836
2 | CUACUUCGAACAAUCGGCCUG [Fam1A.1 aminoacylation ribozyme variant] | 1.84 | 1.54 | 1.6 | 4.78 | 1.71 | 1.36
3 | CUACUUCGAACAAUCGGUGUG [Fam1A.1 aminoacylation ribozyme variant] | 1.25 | 0.999 | 1.03 | 0.861 | 1.13 | 1.26
4 | CUACUUCGAACAAUCGUUCUG [Fam1A.1 aminoacylation ribozyme variant] | 0.368 | 0.49 | 0.432 | 0.268 | 0.453 | 0.457
5 | CUACUUCGAACAAUCUGUCUG [Fam1A.1 aminoacylation ribozyme variant] | 0.337 | 0.576 | 0.539 | 0.413 | 0.51 | 0.576
6 | CUACUUCGAACCAUCGGUCUG [Fam1A.1 aminoacylation ribozyme variant] | 0.463 | 0.779 | 0.723 | 0.458 | 0.813 | 0.61
7 | CUACUUCUAACAAUCGGUCGG [Fam1A.1 aminoacylation ribozyme variant] | 0.653 | 0.728 | 0.843 | 0.725 | 0.626 | 0.978
8 | CUACUUCUAACAAUGGGUCUG [Fam1A.1 aminoacylation ribozyme variant] | 0.566 | 0.705 | 0.833 | 0.582 | 0.718 | 0.697
9 | CUACUUGAAACAAUCGGUCUG [Fam1A.1 aminoacylation ribozyme variant] | 0.631 | 0.779 | 0.766 | 0.652 | 0.788 | 0.707
10 | CUACUUGAAACAAUCGUUCUG [Fam1A.1 aminoacylation ribozyme variant] | 0.379 | 0.561 | 0.635 | 0.5 | 0.614 | 0.645
11 | CUACUUGAAACAAUGGGUCUG [Fam1A.1 aminoacylation ribozyme variant] | 1.61 | 1.13 | 1.3 | 0.694 | 1.65 | 1.13
12 | CUACUUUAAAAAAUCGGUCUG [Fam1A.1 aminoacylation ribozyme variant] | 0.72 | 0.87 | 1.01 | 0.887 | 0.987 | 0.744
13 | CUACUUUAGACAAUCGGUCUG [Fam1A.1 aminoacylation ribozyme variant] | 0.518 | 0.826 | 0.77 | 0.65 | 0.847 | 0.7
14 | CUAGUACAAACAAUCGGUCUG [Fam1A.1 aminoacylation ribozyme variant] | 0.572 | 0.775 | 0.837 | 0.781 | 0.725 | 0.802
15 | CUAGUUAAAACAAUCGGUCUG [Fam1A.1 aminoacylation ribozyme variant] | 0.622 | 0.679 | 0.795 | 0.675 | 0.958 | 0.801
16 | CUAGUUCAAACAAUCCGUCUG [Fam1A.1 aminoacylation ribozyme variant] | 0.713 | 0.895 | 0.861 | 0.796 | 0.885 | 0.89
17 | CUAGUUCAAACAAUCGCUCUG [Fam1A.1 aminoacylation ribozyme variant] | 0.844 | 0.934 | 0.832 | 0.847 | 0.827 | 0.798
18 | CUAGUUCAAACAAUCGGUCAG [Fam1A.1 aminoacylation ribozyme variant] | 1.2 | 0.753 | 0.714 | 2.03 | 0.731 | 0.692
19 | CUAGUUCAAACACUCGGUCUG [Fam1A.1 aminoacylation ribozyme variant] | 1.04 | 1.31 | 1.35 | 5.58 | 1.46 | 1.48
20 | CUAGUUCAAACGAUCGGUCUG [Fam1A.1 aminoacylation ribozyme variant] | 0.58 | 0.794 | 0.782 | 0.559 | 0.812 | 0.844
21 | CUAGUUCACACAAUCGGUCUG [Fam1A.1 aminoacylation ribozyme variant] | 1.19 | 1.14 | 1.28 | 2.8 | 1.13 | 1.36
22 | CUAUUUCAAACAAUCAGUCUG [Fam1A.1 aminoacylation ribozyme variant] | 1.7 | 0.852 | 0.795 | 4.29 | 0.721 | 0.72
23 | CUAUUUCAAACAAUCGGGCUG [Fam1A.1 aminoacylation ribozyme variant] | 1.88 | 1 | 1.24 | 2.05 | 1.08 | 0.844
24 | CUAUUUCAAACAAUCGGUCUU [Fam1A.1 aminoacylation ribozyme variant] | 1.57 | 0.827 | 0.864 | 2.72 | 0.878 | 0.792
25 | CUAUUUCAAACAAUCGGUUUG [Fam1A.1 aminoacylation ribozyme variant] | 3.18 | 0.81 | 0.907 | 4.11 | 0.903 | 1
26 | CUCACCCUGGUCAUCGAGUGA [Fam2.1 aminoacylation ribozyme variant] | 6.74 | 4.49 | 3.71 | 27.1 | 5.33 | 7.38

Row | Sequence | self-aminoacylation [1] | self-aminoacylation [2] | self-aminoacylation [3] | self-aminoacylation [4] | self-aminoacylation [5] | self-aminoacylation [6]
27 | CUCCGUCAAACAAUCGGUCUG [Fam1A.1 aminoacylation ribozyme variant] | 1.29 | 0.973 | 1.07 | 1.97 | 1.02 | 0.889
28 | CUCCUCCAAACAAUCGGUCUG [Fam1A.1 aminoacylation ribozyme variant] | 2.85 | 0.846 | 1.06 | 2.28 | 0.973 | 0.846
29 | CUCCUUAAAACAAUCGGUCUG [Fam1A.1 aminoacylation ribozyme variant] | 1.32 | 0.862 | 1.06 | 1.05 | 1.12 | 0.899
30 | CUCCUUCAAACAAUCGGCCUG [Fam1A.1 aminoacylation ribozyme variant] | 61.7 | 2.15 | 2.04 | 131 | 2.63 | 3.39
31 | CUCGUUCAAACAAUCGGUCUG [Fam1A.1 aminoacylation ribozyme variant] | 6.95 | 1.07 | 1.09 | 10.2 | 0.961 | 1.31
32 | CUGAUUCAAACAAUCGGUCUG [Fam1A.1 aminoacylation ribozyme variant] | 6.12 | 0.828 | 0.947 | 9.61 | 0.923 | 1.14
33 | CUGCAUCAAACAAUCGGUCUG [Fam1A.1 aminoacylation ribozyme variant] | 7.51 | 1.05 | 1.08 | 10.1 | 1.13 | 1.18
34 | CUGCUUCAAACAAUCGGGCUG [Fam1A.1 aminoacylation ribozyme variant] | 36.1 | 2.33 | 2.2 | 38.7 | 2.66 | 3.18
35 | CUGCUUCAAGCAAUCGGUCUG [Fam1A.1 aminoacylation ribozyme variant] | 42.8 | 1.49 | 1.29 | 132 | 2.13 | 2.96
36 | CUGCUUUAAACAAUCGGUCUG [Fam1A.1 aminoacylation ribozyme variant] | 1.87 | 0.79 | 0.889 | 2 | 0.879 | 0.754
37 | CUUACCCUGGACAUCGAGUGA [Fam2.1 aminoacylation ribozyme variant] | 5.06 | 3.18 | 2.78 | 11.5 | 5.08 | 5.46
38 | CUUACCCUGGUCAUAGAGUGA [Fam2.1 aminoacylation ribozyme variant] | 7.46 | 2.83 | 2.86 | 24.2 | 6.37 | 5.85
39 | CUUACCCUGGUCAUCGAGUAA [Fam2.1 aminoacylation ribozyme variant] | 3.51 | 2.8 | 2.03 | 8.84 | 4.58 | 4.25
40 | CUUACCCUGGUCAUCGAGUCA [Fam2.1 aminoacylation ribozyme variant] | 0.547 | 1.07 | 0.742 | 0.627 | 0.897 | 0.705
41 | CUUACCCUGGUCAUCGAGUGA [Fam2.1 aminoacylation ribozyme variant] | 26.1 | 11 | 9.83 | 85.8 | 25.3 | 23.1
42 | CUUACCCUGGUCAUCGAGUUA [Fam2.1 aminoacylation ribozyme variant] | 2.08 | 1.73 | 1.53 | 4.79 | 2.5 | 2.36
43 | CUUACCCUGGUCUUCGAGUGA [Fam2.1 aminoacylation ribozyme variant] | 5 | 2.64 | 2.29 | 17.9 | 3.87 | 4.29
44 | CUUACCCUGGUGAUCGAGUGA [Fam2.1 aminoacylation ribozyme variant] | 5.52 | 2.81 | 2.65 | 14.5 | 4.51 | 4.36
45 | CUUACCCUGUUCAUCGAGUGA [Fam2.1 aminoacylation ribozyme variant] | 6.94 | 2.86 | 2.29 | 7.83 | 4.32 | 4.33
46 | CUUAUUCAAACAAUCGGUCUG [Fam1A.1 aminoacylation ribozyme variant] | 3.34 | 0.688 | 0.702 | 7.03 | 0.713 | 0.679
47 | CUUCACCAAGGUCAUCGGGUG [Fam2.2 aminoacylation ribozyme variant] | 7.64 | 5.4 | 4.21 | 59.9 | 8.17 | 9.25
48 | CUUCACCGAGGUCAUCGGGUG [Fam2.2 aminoacylation ribozyme variant] | 5.44 | 4.68 | 3.01 | 59.7 | 6.2 | 7.45
49 | CUUCACCUAGGUAAUCGGGUG [Fam2.2 aminoacylation ribozyme variant] | 2.7 | 1.65 | 1.59 | 1.56 | 2.65 | 2.68
50 | CUUCACCUAGGUCAUCGGAUG [Fam2.2 aminoacylation ribozyme variant] | 0.921 | 1.18 | 1.06 | 1 | 0.842 | 0.891
51 | CUUCACCUAGGUCAUCGUGUG [Fam2.2 aminoacylation ribozyme variant] | 1.12 | 1.26 | 1.21 | 3.33 | 1.6 | 1.39
